Columns and labels:
[1] = target: PPAR GAMMA / RXR ALPHA heterodimer (Mus musculus, UniProt P37238;P28700 P37238:1-505,P28700:1-467); assay: EMSA; competed by excess (10 or 100-fold tested) unlabeled Rev-DR2; conditions: tags: pSG5-mPPAR-gamma and pSG5-mRXR-alpha, rabbit reticulocyte lysate; label: end-labeled
Description: Binding competition experiments were performed by adding a 0, 10 or 100-fold excess of unlabeled Rev-DR2 oligonucleotide.
(§1) The pSG5-mPPAR-gamma, pSG5-mRXR-alpha and pSG5-hRev-erb alpha plasmids were transcribed in vitro with T7 polymerase and translated with the rabbit reticulocyte lysate system (Promega, Madison, Wis., USA). Gel shift experiments with REV-ERB ALPHA, PPAR GAMMA and/or RXR ALPHA proteins were carried out as previously described (Gervois, P. et al., Molecular Endocrinology 1999, 13(3): 400-409; Vu-Dac, N. et al., J. Biol. Chem. 1994, 269(49): 31012-31018). For the competition experiments, increasing quantities of the indicated unlabeled probe were added immediately before adding the labeled oligonucleotide. The complexes were resolved in 5% polyacrylamide gels using […] buffer (90 mM borate, 2.5 mM EDTA, pH 8.3) at room temperature. Gels were dried and exposed overnight at −70° C. on Rayon-X film (XOMAT-AR, Eastman Kodak, Rochester, N.Y., USA).
Lastly, binding of the PPAR GAMMA receptor to the Rev-DR2 site was studied. A test to measure electrophoretic mobility (gel shift or electrophoretic mobility shift assay) was carried out using PPAR GAMMA and RXR ALPHA proteins synthesized in vitro. […]

[2] = target: T1, RXR ALPHA (Mus musculus, UniProt P28700 P28700:1-467); assay: EMSA; RXR alpha alone; conditions: tags: pSG5-mRXR-alpha, rabbit reticulocyte lysate; label: end-labeled
T1 sequence: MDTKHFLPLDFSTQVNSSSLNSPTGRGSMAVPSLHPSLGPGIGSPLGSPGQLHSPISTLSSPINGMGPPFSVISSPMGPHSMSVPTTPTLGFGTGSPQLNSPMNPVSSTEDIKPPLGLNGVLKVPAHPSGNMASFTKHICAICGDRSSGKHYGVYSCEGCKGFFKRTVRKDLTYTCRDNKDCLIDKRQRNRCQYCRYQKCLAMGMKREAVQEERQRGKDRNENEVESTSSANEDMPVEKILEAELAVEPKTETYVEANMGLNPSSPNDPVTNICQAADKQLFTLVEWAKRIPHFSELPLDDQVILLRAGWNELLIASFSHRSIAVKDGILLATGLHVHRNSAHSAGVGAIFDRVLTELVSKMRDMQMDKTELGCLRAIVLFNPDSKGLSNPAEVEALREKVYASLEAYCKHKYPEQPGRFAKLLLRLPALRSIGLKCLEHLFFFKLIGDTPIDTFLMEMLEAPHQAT
Description: (§2) The electrophoretic gel shift studies were carried out by using the indicated end-labeled oligonucleotides, in the presence of the murine PPAR GAMMA receptor, murine RXR ALPHA receptor, human REV-ERB ALPHA receptor produced by reticulocyte lysate, or non-programmed lysates (lysate). Binding competition experiments were performed by adding a 0, 10 or 100-fold excess of unlabeled Rev-DR2 oligonucleotide.
as §1
(§3) Lastly, binding of the PPAR GAMMA receptor to the Rev-DR2 site was studied. […]

[3] = target: T2, REV-ERB ALPHA (NR1D1) (Homo sapiens, UniProt P20393 SEQ:1-614); assay: EMSA; binds as monomer and homodimer; conditions: tags: expressed from pSG5-hRev-erb alpha, rabbit reticulocyte lysate; label: end-labeled
T2 sequence: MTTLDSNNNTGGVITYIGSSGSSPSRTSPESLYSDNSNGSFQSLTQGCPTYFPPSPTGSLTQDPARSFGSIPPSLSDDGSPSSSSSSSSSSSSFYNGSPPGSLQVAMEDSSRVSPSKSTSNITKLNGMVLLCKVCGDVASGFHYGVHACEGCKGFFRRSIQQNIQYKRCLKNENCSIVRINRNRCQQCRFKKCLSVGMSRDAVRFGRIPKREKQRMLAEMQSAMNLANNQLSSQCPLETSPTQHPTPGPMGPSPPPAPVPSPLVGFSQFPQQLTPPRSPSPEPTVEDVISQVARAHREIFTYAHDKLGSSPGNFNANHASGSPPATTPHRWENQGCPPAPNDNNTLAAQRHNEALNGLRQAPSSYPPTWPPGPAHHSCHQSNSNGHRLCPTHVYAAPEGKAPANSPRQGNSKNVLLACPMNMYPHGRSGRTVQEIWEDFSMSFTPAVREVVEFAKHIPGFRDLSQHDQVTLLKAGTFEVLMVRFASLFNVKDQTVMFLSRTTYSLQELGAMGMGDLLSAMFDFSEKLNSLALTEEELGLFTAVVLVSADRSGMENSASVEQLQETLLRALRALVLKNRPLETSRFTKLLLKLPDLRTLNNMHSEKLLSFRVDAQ
Description: as §2, §1, §3

[4] = target: PPAR GAMMA (Mus musculus, UniProt P37238 P37238:1-505); assay: EMSA; PPAR gamma alone; conditions: tags: pSG5-mPPAR-gamma, rabbit reticulocyte lysate; label: end-labeled
Description: as §2, §1, §3

B1: Rev-DR2 (dsDNA)
DNA 1: AAAAGTGTGTCACTGGGGCA
DNA 2: TGCCCCAGTGACACACTTTT
- binding result [1]: binds
- binding result [2]: no binding
- binding result [3]: binds
- binding result [4]: no binding

From patent US20050032064, “Method and device for identifying substances capable of modulating adipocyte differentiation” (published 2005)
